Measured values published in patent US20240417459A1 (CELLDEX THERAPEUTICS, published 2024).

B1: 9H9-7B1 HL (bispecific antibody, human IgG1, kappa)
heavy: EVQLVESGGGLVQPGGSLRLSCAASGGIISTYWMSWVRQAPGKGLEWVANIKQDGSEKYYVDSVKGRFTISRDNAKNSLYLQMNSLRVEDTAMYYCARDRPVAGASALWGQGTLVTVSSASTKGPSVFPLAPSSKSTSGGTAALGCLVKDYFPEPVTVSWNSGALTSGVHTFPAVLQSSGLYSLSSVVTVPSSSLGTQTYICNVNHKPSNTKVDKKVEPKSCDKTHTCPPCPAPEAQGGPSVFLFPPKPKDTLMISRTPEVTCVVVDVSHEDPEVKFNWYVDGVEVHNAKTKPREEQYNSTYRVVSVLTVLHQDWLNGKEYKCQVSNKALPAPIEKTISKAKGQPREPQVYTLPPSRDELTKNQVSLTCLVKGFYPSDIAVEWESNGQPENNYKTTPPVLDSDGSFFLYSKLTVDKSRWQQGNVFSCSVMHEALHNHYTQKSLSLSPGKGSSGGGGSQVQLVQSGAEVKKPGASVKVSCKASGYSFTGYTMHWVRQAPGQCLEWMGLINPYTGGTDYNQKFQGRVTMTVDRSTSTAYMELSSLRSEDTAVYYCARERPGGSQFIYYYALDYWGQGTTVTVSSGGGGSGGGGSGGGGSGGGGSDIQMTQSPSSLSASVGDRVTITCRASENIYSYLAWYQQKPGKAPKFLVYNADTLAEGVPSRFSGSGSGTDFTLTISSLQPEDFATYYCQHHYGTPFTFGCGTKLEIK
light: DIQMTQSPSTLSASVGDRVTITCRASQSISGWLAWYQQKPGKAPKLLIYKASSLESGVPSRFSGSGSGTEFTLTISSLQPDDFATYYCQQYYGSSRTFGQGTNVEIKRTVAAPSVFIFPPSDEQLKSGTASVVCLLNNFYPREAKVQWKVDNALQSGNSQESVTEQDSKDSTYSLSSTLTLSKADYEKHKVYACEVTHQGLSSPVTKSFNRGEC
notes: Tetravalent bispecific: anti-PD-L1 9H9 on a mutated human IgG1 (AQQ Fc) with the 7B1 scFv (VH-VL) at the C-terminus of the heavy chain; also called 9H9 AQQ-7B1 H2L1; PD-L1xILT4 bispecific antibody
B2: 9H9-7B1 LH (bispecific antibody, human IgG1, kappa)
heavy: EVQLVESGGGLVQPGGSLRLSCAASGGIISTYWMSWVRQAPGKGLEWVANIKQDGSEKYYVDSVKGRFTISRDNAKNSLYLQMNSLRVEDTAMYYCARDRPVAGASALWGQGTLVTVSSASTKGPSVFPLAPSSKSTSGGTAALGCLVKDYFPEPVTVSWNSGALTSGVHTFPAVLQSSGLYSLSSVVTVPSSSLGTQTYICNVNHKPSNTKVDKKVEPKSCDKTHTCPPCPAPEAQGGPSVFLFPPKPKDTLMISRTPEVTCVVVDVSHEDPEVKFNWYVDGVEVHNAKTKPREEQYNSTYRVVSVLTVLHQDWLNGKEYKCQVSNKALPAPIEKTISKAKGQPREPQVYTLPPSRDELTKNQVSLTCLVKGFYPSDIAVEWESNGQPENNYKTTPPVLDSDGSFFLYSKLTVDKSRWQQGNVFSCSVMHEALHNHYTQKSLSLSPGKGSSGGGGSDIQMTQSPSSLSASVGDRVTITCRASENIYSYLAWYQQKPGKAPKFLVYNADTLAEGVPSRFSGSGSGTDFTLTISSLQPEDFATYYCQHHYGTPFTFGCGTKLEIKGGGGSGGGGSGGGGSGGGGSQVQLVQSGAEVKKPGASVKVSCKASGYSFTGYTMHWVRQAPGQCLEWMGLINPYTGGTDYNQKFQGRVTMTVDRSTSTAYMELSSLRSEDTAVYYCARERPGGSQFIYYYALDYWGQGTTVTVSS
light: B1 light
notes: Tetravalent bispecific as 9H9-7B1 HL, but with the scFv in the VL-VH orientation; also called 9H9 AQQ-7B1 L1H2; PD-L1xILT4 bispecific antibody

Target: T1, human ILT4 expressed on HEK293 cells (human, UniProt Q8N423 22-597)
T1 construct: also called LILRB2; LIR2
Experiment: bifunctional flow cytometry: bispecific bound to HEK293 cells expressing human ILT4, then human PD-L1-msFc detected with PE anti-mouse IgG Fc
Description: Binding of bispecific constructs to ILT4 and PD-L1 was assessed using HEK293 cells expressing human ILT4. In brief, dilutions of the bispecific constructs were allowed to bind to the ILT4 expressing cell before adding human PD-L1-msFc that was detected with PE labeled goat anti-mouse IgG Fc-specific probe.

T1 sequence (Q8N423 other isoform, or with tags, fused parts or gaps limits assumed): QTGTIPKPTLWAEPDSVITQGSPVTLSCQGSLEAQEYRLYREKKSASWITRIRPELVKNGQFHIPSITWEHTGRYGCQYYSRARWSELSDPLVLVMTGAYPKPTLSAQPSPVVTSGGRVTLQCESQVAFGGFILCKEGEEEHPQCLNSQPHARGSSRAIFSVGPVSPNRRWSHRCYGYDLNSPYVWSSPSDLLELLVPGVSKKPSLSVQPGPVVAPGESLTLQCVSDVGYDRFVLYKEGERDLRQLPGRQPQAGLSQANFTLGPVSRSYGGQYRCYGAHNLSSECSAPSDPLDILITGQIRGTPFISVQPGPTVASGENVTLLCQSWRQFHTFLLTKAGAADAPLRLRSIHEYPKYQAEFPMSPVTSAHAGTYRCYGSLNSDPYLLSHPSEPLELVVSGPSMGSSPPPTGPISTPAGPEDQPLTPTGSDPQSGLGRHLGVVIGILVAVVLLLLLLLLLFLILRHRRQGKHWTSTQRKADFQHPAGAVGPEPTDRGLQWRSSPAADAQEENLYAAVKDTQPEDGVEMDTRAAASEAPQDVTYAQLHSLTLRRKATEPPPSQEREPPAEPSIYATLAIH

Binder | binding result
B1 | binds
B2 | binds
